Sequences and labels used below:
B1: cyt b5 L125W, released from the linker-cleaved SCD1-cyt b5-TEV chimera (natural protein, mouse, UniProt P56395 1-134, looked up)
chain: MAGQSDKDVKYYTLEEIQKHKDSKSTWVILHHKVYDLTKFLEEHPGGEEVLREQAGGDATENFEDVGHSTDARELSKTYIIGELHPDDRSKIAKPSDTLITTVESNSSWWTNWVIPAISALAVAWMYRLYMAED
notes: cytochrome b5, mouse, UniProt P56395; as m11 with the mutation; source: HEK 293S (BacMam), purified as a fusion with SCD1, cleaved by TEV protease; not shown: GFP, C-terminal, cleaved
B2: cyt b5 A124W, released from the linker-cleaved cyt b5-b5R-TEV chimera (natural protein, mouse, UniProt P56395 1-134, looked up)
chain: MAGQSDKDVKYYTLEEIQKHKDSKSTWVILHHKVYDLTKFLEEHPGGEEVLREQAGGDATENFEDVGHSTDARELSKTYIIGELHPDDRSKIAKPSDTLITTVESNSSWWTNWVIPAISALAVWLMYRLYMAED
notes: cytochrome b5, mouse, UniProt P56395; as m6 with the mutation; source: High Five cells (Bac-to-Bac), purified as a fusion with b5R, cleaved by TEV protease
B3: cyt b5 V123W, released from the linker-cleaved cyt b5-b5R-TEV chimera (natural protein, mouse, UniProt P56395 1-134, looked up)
chain: MAGQSDKDVKYYTLEEIQKHKDSKSTWVILHHKVYDLTKFLEEHPGGEEVLREQAGGDATENFEDVGHSTDARELSKTYIIGELHPDDRSKIAKPSDTLITTVESNSSWWTNWVIPAISALAWALMYRLYMAED
notes: as for B2
B4: cyt b5 R128A, released from the linker-cleaved cyt b5-b5R-TEV chimera (natural protein, mouse, UniProt P56395 1-134, looked up)
chain: MAGQSDKDVKYYTLEEIQKHKDSKSTWVILHHKVYDLTKFLEEHPGGEEVLREQAGGDATENFEDVGHSTDARELSKTYIIGELHPDDRSKIAKPSDTLITTVESNSSWWTNWVIPAISALAVALMYALYMAED
notes: as for B2
B5: cyt b5 Y127A, released from the linker-cleaved cyt b5-b5R-TEV chimera (natural protein, mouse, UniProt P56395 1-134, looked up)
chain: MAGQSDKDVKYYTLEEIQKHKDSKSTWVILHHKVYDLTKFLEEHPGGEEVLREQAGGDATENFEDVGHSTDARELSKTYIIGELHPDDRSKIAKPSDTLITTVESNSSWWTNWVIPAISALAVALMARLYMAED
notes: as for B2
B6: cyt b5 S119A, released from the linker-cleaved cyt b5-b5R-TEV chimera (natural protein, mouse, UniProt P56395 1-134, looked up)
chain: MAGQSDKDVKYYTLEEIQKHKDSKSTWVILHHKVYDLTKFLEEHPGGEEVLREQAGGDATENFEDVGHSTDARELSKTYIIGELHPDDRSKIAKPSDTLITTVESNSSWWTNWVIPAIAALAVALMYRLYMAED
notes: as for B2
B7: cyt b5 M126A, released from the linker-cleaved cyt b5-b5R-TEV chimera (natural protein, mouse, UniProt P56395 1-134, looked up)
chain: MAGQSDKDVKYYTLEEIQKHKDSKSTWVILHHKVYDLTKFLEEHPGGEEVLREQAGGDATENFEDVGHSTDARELSKTYIIGELHPDDRSKIAKPSDTLITTVESNSSWWTNWVIPAISALAVALAYRLYMAED
notes: as for B2
B8: cyt b5 A122W, released from the linker-cleaved cyt b5-b5R-TEV chimera (natural protein, mouse, UniProt P56395 1-134, looked up)
chain: MAGQSDKDVKYYTLEEIQKHKDSKSTWVILHHKVYDLTKFLEEHPGGEEVLREQAGGDATENFEDVGHSTDARELSKTYIIGELHPDDRSKIAKPSDTLITTVESNSSWWTNWVIPAISALWVALMYRLYMAED
notes: as for B2
B9: cyt b5 L121W, released from the linker-cleaved cyt b5-b5R-TEV chimera (natural protein, mouse, UniProt P56395 1-134, looked up)
chain: MAGQSDKDVKYYTLEEIQKHKDSKSTWVILHHKVYDLTKFLEEHPGGEEVLREQAGGDATENFEDVGHSTDARELSKTYIIGELHPDDRSKIAKPSDTLITTVESNSSWWTNWVIPAISAWAVALMYRLYMAED
notes: as for B2

The values below come from publication PMC9468158, “Transmembrane helices mediate the formation of a stable ternary complex of b5R, cyt b5, and SCD1” (Communications Biology, 2022).

The target of the first assay is T1, SCD1, released from the linker-cleaved SCD1-cyt b5 fusions (mouse, UniProt P13516 1-355).
T1 construct: stearoyl-CoA desaturase-1 (SCD1), mouse, UniProt P13516; stands for the SCD1 chain of the fusion with full-length cyt b5 (wild type and TM mutants) and of the fusion with the soluble domain of cyt b5; the GFP tag stood at the C-terminus of the fusion; surmised: ENLYFQ is left at the C-terminus after cleavage
T1 sequence (looked up): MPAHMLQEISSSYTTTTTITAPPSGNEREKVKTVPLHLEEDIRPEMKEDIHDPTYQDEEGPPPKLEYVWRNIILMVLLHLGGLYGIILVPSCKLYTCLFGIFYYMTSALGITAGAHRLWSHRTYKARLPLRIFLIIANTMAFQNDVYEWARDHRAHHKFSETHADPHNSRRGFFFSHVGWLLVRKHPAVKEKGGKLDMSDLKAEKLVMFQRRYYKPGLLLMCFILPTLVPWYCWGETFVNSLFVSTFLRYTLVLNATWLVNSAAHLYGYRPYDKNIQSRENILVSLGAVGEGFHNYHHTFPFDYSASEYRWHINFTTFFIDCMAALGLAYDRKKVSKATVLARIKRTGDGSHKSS
Kind of assay: SEC; TM mutants in the linker-cleavable fusions, purified and cleaved by TEV protease; SRE-10C SEC-300 (Sepax) on HPLC, FPLC buffer, 0.75 mL/min; heme absorbance (413 nm by the results, 423 nm by the methods) gives the ratio of heterodimer to monomeric cyt b5. The conditions noted are these: both partners purified. A general note: SEC sorts molecules by how far they enter the pores of the column.
Turning to B1, the “percent dissociation of the complex” value was roughly 40%.

The next assay deals with T2, full-length b5R, released from the linker-cleaved cyt b5-b5R fusion (mouse, UniProt Q9DCN2 1-301).
T2 construct: surmised: cleavage of the linker ENLYFQ/G leaves a G at the N-terminus; no extra residue after the C-terminus of b5R
T2 sequence (looked up): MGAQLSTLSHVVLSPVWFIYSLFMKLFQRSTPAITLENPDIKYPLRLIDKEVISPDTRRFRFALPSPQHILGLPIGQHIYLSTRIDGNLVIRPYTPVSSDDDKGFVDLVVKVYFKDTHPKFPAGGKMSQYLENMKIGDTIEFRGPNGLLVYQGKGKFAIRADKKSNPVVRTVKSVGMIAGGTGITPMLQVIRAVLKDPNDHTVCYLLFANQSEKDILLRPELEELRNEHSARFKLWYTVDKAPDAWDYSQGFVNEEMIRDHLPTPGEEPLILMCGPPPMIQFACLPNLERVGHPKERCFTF
Described as above. The conditions noted are these: both partners purified.
As for B2, the “percent dissociation of the complex” value was roughly 40%.

For the molecule B3, the binding result is listed as “binds”.

With B4, the “percent dissociation of the complex” value is roughly 40%.

B5: the binding result was “binds”.

With B6, the binding result is “binds”.

For the molecule B7, the binding result is listed as “binds”.

With B8, the binding result is “binds”.

For the molecule B9, the binding result is reported as “binds”.
